Our source for the stoichiometry N values is paper PMC8406324.

In the experiment the target is HTNV Gn as incorporated in virus-like particles (Hantaan virus (HTNV)). Kind of experiment: cryo-EM structure.

As usually defined, the stoichiometry N is the number of molecules, sites or subunits per partner or assembly. Regarding “HTNV Gn as incorporated in virus-like particles (natural protein)”, the stoichiometry N was 4.
